PMC3113298

Molecular target: Cu, Zn-superoxide dismutase-1 (SOD1), human (human) (UniProt P00441)
Sequence (P00441 whole entry): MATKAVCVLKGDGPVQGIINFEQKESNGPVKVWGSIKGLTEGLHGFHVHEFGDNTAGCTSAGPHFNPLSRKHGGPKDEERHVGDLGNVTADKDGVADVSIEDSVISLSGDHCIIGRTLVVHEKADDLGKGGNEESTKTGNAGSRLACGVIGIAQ

proteolysis of purified human SOD1 by purified rat PSA/NPEPPS: loss of full-length SOD1 by Western blot after 6 h at 37°C, 50 mM Bicine pH 7.0, 0.2 mM DTT, molar ratio 1:6 (PSA:SOD1): 80%
B1: Puromycin-sensitive aminopeptidase (PSA/NPEPPS), rat (enzyme)
chain: MWLAAAVPSLARRLLLLGSPPPPLLLLLSRSSSRRRRLHSLGLAAMPEKRPFERLPTEVSPINYSLCLKPDLLDFTFEGKLEAAAQVRQATNQIVMNCADIDIITASYAPEGDEEIHATGFNYQNEDEKVTLSFPSTLQTGTGTLKIDFVGELNDKMKGFYRSRYTTPAGEVRYAAVTQFEATDARRAFPCWDEPAIKATFDISLVVPKDRVALSNMNVIDRKPYPDDENLVEVKFARTPVMSTYLVAFVVGEYDFVETRSKDGVCVRVYTPVGKAEQGKFALEVAAKTLPFYKDYFNVPYPLPKIDLIAIADFAAGAMENWGLVTYRETALLIDPKNSCSSSRQWVALVVGHELAHQWFGNLVTMEWWTHLWLNEGFASWIEYLCVDHCFPEYDIWTQFVSADYTRAQELDALDNSHPIEVSVGHPSEVDEIFDAISYSKGASVIRMLHDYIGDKDFKKGMNMYLTKFQQKNAATEDLWESLESASGKPIAAVMNTWTKQMGFPLIYVEAEQVEDDRVLKLSQKKFCASGPYVGEDCPQWMVPITISTSEDPNQAKLKILMDKPEMSVVLKNVKPDQWVKLNLGTVGFYRTQYSSAMLESLLPGIRDLSLPPVDRLGLQNDLFSLARAGIISTVEVLKVMEAFVNEPNYTVWSDLSCNLGILSTLLSHTDFYEEIQEFVKDVFSPIGERLGWDPKPGEGHLDALLRGLVLGKLGKAGHKATLEEARRRFKEHVEGKQILSADLRSPVYLTVLKHGDGTTLDIMLKLHKQADMQEEKNRIERVLGATLSPELIQKVLTFALSEEVRPQDTVSVIGGVAGGSKHGRKAAWKFIKDNWEELYNRYQGGFLISRLIKLSVEGFAVDKMAGEVKAFFESHPAPSAERTIQQCCENILLNAAWLKRDADSIHQYLLQRKASPPSV
